According to the supplement of paper PMC9112550, “Optimization of the antimicrobial peptide Bac7 by deep mutational scanning” (BMC Biology, 2022):

Tested on: Escherichia coli TOP10
Assay: shrunken log2 fold change of peptide-encoding DNA abundance (4.5 h post-induction vs induction); higher = less antimicrobial activity (less host growth inhibition)
Settings: time post-induction: 4.5 h; library: site-saturation at positions 5, 18, 19, 20
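Note: peptides expressed intracellularly from a pBAD plasmid library in pooled LB shake-flask culture, induced with 0.3% L-arabinose, DNA abundance read by NGS, three biological replicates, DESeq2 with apeglm shrinkage.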

Sequence | shrunken log2 fold change
RRIRVRPPRLPRPRPRPGAMPRP | 0.0686
RRIRERPPRLPRPRPRPHPRPRP | 0.278
RRIRKRPPRLPRPRPRPQFGPRP | 0.0962
RRIRWRPPRLPRPRPRPFPQPRP | 0.0229
RRIRGRPPRLPRPRPRPVLNPRP | 0.469
RRIRERPPRLPRPRPRPDNPPRP | -0.0894
RRIRFRPPRLPRPRPRPVWPPRP | 0.263
RRIRGRPPRLPRPRPRPASFPRP | 0.345
RRIRFRPPRLPRPRPRPSAEPRP | 0.0747
RRIRCRPPRLPRPRPRPLNWPRP | 0.0486
RRIRFRPPRLPRPRPRPNVQPRP | -0.237
RRIRCRPPRLPRPRPRPAEMPRP | -0.0594
RRIRKRPPRLPRPRPRPNSRPRP | 0.149
RRIRHRPPRLPRPRPRPLRWPRP | 0.3
RRIRKRPPRLPRPRPRPFCMPRP | -0.115
RRIRTRPPRLPRPRPRPRDHPRP | 0.0565
RRIRVRPPRLPRPRPRPPCLPRP | -0.108
RRIRIRPPRLPRPRPRPAGLPRP | -0.0628
RRIRSRPPRLPRPRPRPCKRPRP | -0.326
RRIRERPPRLPRPRPRPMAWPRP | 0.151
RRIRWRPPRLPRPRPRPFQIPRP | -0.25
RRIRARPPRLPRPRPRPDNFPRP | -0.294
RRIRNRPPRLPRPRPRPGVCPRP | 0.241
RRIRKRPPRLPRPRPRPNYRPRP | 0.123
RRIRCRPPRLPRPRPRPNWRPRP | 0.437

Sequence | shrunken log2 fold change
RRIRKRPPRLPRPRPRPDFIPRP | -0.209
RRIRGRPPRLPRPRPRPDYSPRP | -0.0453
RRIRQRPPRLPRPRPRPVLFPRP | 0.166
RRIRFRPPRLPRPRPRPRFSPRP | 0.033
RRIRYRPPRLPRPRPRPGSPPRP | -0.0883
RRIRDRPPRLPRPRPRPGDVPRP | 0.0601
RRIRFRPPRLPRPRPRPMWCPRP | 0.0155
RRIRQRPPRLPRPRPRPHKFPRP | -0.279
RRIRNRPPRLPRPRPRPDWMPRP | -0.0128
RRIRSRPPRLPRPRPRPDEGPRP | 0.0432
RRIRQRPPRLPRPRPRPRWCPRP | -0.0737
RRIRNRPPRLPRPRPRPEGEPRP | 0.481
RRIRSRPPRLPRPRPRPYGYPRP | -0.00281
RRIRGRPPRLPRPRPRPKEMPRP | 0.5
RRIRIRPPRLPRPRPRPLSSPRP | -0.143
RRIRLRPPRLPRPRPRPELEPRP | 0.23
RRIRGRPPRLPRPRPRPLTEPRP | 1.22
RRIRERPPRLPRPRPRPWSIPRP | 0.0521
RRIRWRPPRLPRPRPRPFMAPRP | -0.121
RRIRFRPPRLPRPRPRPPAIPRP | 0.363
RRIRDRPPRLPRPRPRPDMWPRP | 0.0213
RRIRKRPPRLPRPRPRPTASPRP | 0.783
RRIRLRPPRLPRPRPRPPLDPRP | 0.436
RRIRWRPPRLPRPRPRPMCYPRP | -0.308
RRIRDRPPRLPRPRPRPDGQPRP | 0.705

Sequence | shrunken log2 fold change
RRIRWRPPRLPRPRPRPVMNPRP | -0.133
RRIRMRPPRLPRPRPRPQCDPRP | -0.0599
RRIRTRPPRLPRPRPRPWSLPRP | -0.673
RRIRHRPPRLPRPRPRPYSRPRP | -0.0123
RRIRPRPPRLPRPRPRPCQKPRP | -0.00783
RRIRWRPPRLPRPRPRPLWWPRP | 0.927
RRIRMRPPRLPRPRPRPPNWPRP | 1.03
RRIRKRPPRLPRPRPRPMHRPRP | 0.0595
RRIRARPPRLPRPRPRPYMIPRP | -0.494
RRIRGRPPRLPRPRPRPLWPPRP | 0.836
RRIRLRPPRLPRPRPRPYHHPRP | -0.398
RRIRWRPPRLPRPRPRPPYEPRP | -0.103
RRIRSRPPRLPRPRPRPETAPRP | 0.667
RRIRCRPPRLPRPRPRPRNQPRP | -0.0402
RRIRMRPPRLPRPRPRPTIRPRP | 0.0273
RRIRCRPPRLPRPRPRPSRAPRP | 0.113
RRIRDRPPRLPRPRPRPYWVPRP | -0.129
RRIRDRPPRLPRPRPRPRISPRP | 0.0345
RRIRDRPPRLPRPRPRPHGTPRP | 0.0175
RRIRSRPPRLPRPRPRPYDIPRP | -0.0295
RRIRSRPPRLPRPRPRPRDQPRP | -0.0856
RRIRNRPPRLPRPRPRPRYWPRP | 0.0625
RRIRTRPPRLPRPRPRPPEGPRP | 0.308
RRIRGRPPRLPRPRPRPCCSPRP | 0.107
RRIRMRPPRLPRPRPRPRFSPRP | 0.206

Sequence | shrunken log2 fold change
RRIRMRPPRLPRPRPRPSVAPRP | 0.44
RRIRWRPPRLPRPRPRPKGFPRP | 0.437
RRIRCRPPRLPRPRPRPRIMPRP | -0.293
RRIRNRPPRLPRPRPRPMDNPRP | -0.105
RRIRKRPPRLPRPRPRPMQTPRP | 0.753
RRIRHRPPRLPRPRPRPKEHPRP | 0.0812
RRIRTRPPRLPRPRPRPIWDPRP | -0.414
RRIRNRPPRLPRPRPRPEGFPRP | 0.0136
RRIRQRPPRLPRPRPRPDCFPRP | 0.291
RRIRHRPPRLPRPRPRPNGHPRP | -0.0552
RRIRDRPPRLPRPRPRPEFSPRP | 0.221
RRIRSRPPRLPRPRPRPNPYPRP | -0.558
RRIRYRPPRLPRPRPRPECTPRP | 0.0109
RRIRVRPPRLPRPRPRPWAPPRP | 0.0631
RRIRARPPRLPRPRPRPKKVPRP | 0.708
RRIRDRPPRLPRPRPRPWPQPRP | -0.121
RRIRWRPPRLPRPRPRPNTGPRP | -0.096
RRIRLRPPRLPRPRPRPNFNPRP | 0.597
RRIRMRPPRLPRPRPRPDGHPRP | 0.0101
RRIRVRPPRLPRPRPRPRRPPRP | 0.34
RRIRIRPPRLPRPRPRPASGPRP | 0.0837
RRIRVRPPRLPRPRPRPLSAPRP | -0.0281
RRIRMRPPRLPRPRPRPVPDPRP | 0.239
RRIRKRPPRLPRPRPRPDYAPRP | 0.102
RRIRIRPPRLPRPRPRPHRHPRP | -0.364

Sequence | shrunken log2 fold change
RRIRWRPPRLPRPRPRPKGDPRP | 0.0616
RRIRERPPRLPRPRPRPQEVPRP | -0.0156
RRIRDRPPRLPRPRPRPHMNPRP | 0.001
RRIRTRPPRLPRPRPRPTPMPRP | 0.276
RRIRFRPPRLPRPRPRPRQQPRP | 0.0599
RRIRIRPPRLPRPRPRPTTAPRP | -0.00422
RRIRQRPPRLPRPRPRPIDHPRP | -0.0445
RRIRYRPPRLPRPRPRPSGVPRP | -0.0951
RRIRYRPPRLPRPRPRPWDTPRP | -0.639
RRIRPRPPRLPRPRPRPHMGPRP | -0.461
RRIRRRPPRLPRPRPRPDVYPRP | -0.0445
RRIRIRPPRLPRPRPRPLCMPRP | -0.964
RRIRWRPPRLPRPRPRPECRPRP | 0.88
RRIRRRPPRLPRPRPRPTNTPRP | 0.142
RRIRHRPPRLPRPRPRPESYPRP | -0.012
RRIRGRPPRLPRPRPRPGERPRP | 0.731
RRIRERPPRLPRPRPRPCTFPRP | -0.129
RRIRDRPPRLPRPRPRPTLTPRP | 0.717
RRIRPRPPRLPRPRPRPGGRPRP | 0.461
RRIRARPPRLPRPRPRPDGDPRP | -0.036
RRIRKRPPRLPRPRPRPCESPRP | -0.0138
RRIRDRPPRLPRPRPRPHQLPRP | -0.0991
RRIRIRPPRLPRPRPRPVVAPRP | -0.0606
RRIRDRPPRLPRPRPRPWNFPRP | 0.0173
RRIRCRPPRLPRPRPRPQDQPRP | -0.101

Sequence | shrunken log2 fold change
RRIRKRPPRLPRPRPRPMQMPRP | -0.00145
RRIRTRPPRLPRPRPRPCMTPRP | -0.111
RRIRWRPPRLPRPRPRPACGPRP | 0.508
RRIRIRPPRLPRPRPRPSGSPRP | -0.17
RRIRGRPPRLPRPRPRPHGRPRP | 0.182
RRIRMRPPRLPRPRPRPMCPPRP | -0.00088
RRIRPRPPRLPRPRPRPSGKPRP | -0.247
RRIRSRPPRLPRPRPRPMQPPRP | 0.0538
RRIRIRPPRLPRPRPRPPIGPRP | -0.0282
RRIRPRPPRLPRPRPRPLQRPRP | 0.395
RRIRPRPPRLPRPRPRPFRNPRP | -0.0931
RRIRCRPPRLPRPRPRPPYQPRP | -0.138
RRIRRRPPRLPRPRPRPVSGPRP | 0.366
RRIRYRPPRLPRPRPRPDLAPRP | -0.344
RRIRERPPRLPRPRPRPRVCPRP | 0.0408
RRIRKRPPRLPRPRPRPVMIPRP | 0.0956
RRIRMRPPRLPRPRPRPNSVPRP | -0.0202
RRIRRRPPRLPRPRPRPDSMPRP | -0.251
RRIRTRPPRLPRPRPRPWDKPRP | -0.0249
RRIRKRPPRLPRPRPRPDHRPRP | 0.139
RRIRLRPPRLPRPRPRPWAWPRP | -0.0255
RRIRIRPPRLPRPRPRPARRPRP | 0.72
RRIRQRPPRLPRPRPRPSSYPRP | -0.416
RRIRCRPPRLPRPRPRPYPGPRP | -0.0268
RRIRIRPPRLPRPRPRPTHYPRP | -0.392
